The text below walks through data of FireProtDB (doi:10.1016/s0014-5793(98)01666-4).

A word on the Tm: it is the temperature at which the thermal transition is half complete.

B1: Parvalbumin alpha, P02625 (parent)
chain: MSMTDLLSAEDIKKAIGAFTAADSFDHKKFFQMVGLKKKSADDVKKVFHILDKDKSGFIEEDELGSILKGFSSDARDLSAKETKTLMAAGDKDGDGKIGVEEFSTLVAES

Variants of B1 are the subject of the series. The conditions noted are these: Rattus norvegicus; pH 7.4; Thermal; DSC; EDTA 10 mM; NaCl 0.20 M; transition: 2; reversible: yes; structure 1RTP; whole UniProt chain shown.
E109S: the Tm was 41.8 °C, the “unfolding enthalpy (calorimetric)” value was 62 kcal/mol and the “unfolding enthalpy (van 't Hoff)” value is 63 kcal/mol.
